Measurements: paper doi:10.1101/2023.04.24.538112

Target: Full-length (FL) BRAF purified from HEK293F cells (UniProt P15056)
Assay: SPR; OpenSPR; His/MBP-NT1-4 or FL-BRAF immobilised on Ni-NTA sensor, KRAS-GMPPNP (GST-tagged or untagged) or GST alone flowed at 30 μL/min for 10 min; 20 mM HEPES pH 7.4, 150 mM NaCl, 0.23% glycerol, 0.05% Tween-20, 1% BSA; 1:1 fit

Sequence of Full-length (FL) BRAF purified from HEK293F cells (P15056 whole entry): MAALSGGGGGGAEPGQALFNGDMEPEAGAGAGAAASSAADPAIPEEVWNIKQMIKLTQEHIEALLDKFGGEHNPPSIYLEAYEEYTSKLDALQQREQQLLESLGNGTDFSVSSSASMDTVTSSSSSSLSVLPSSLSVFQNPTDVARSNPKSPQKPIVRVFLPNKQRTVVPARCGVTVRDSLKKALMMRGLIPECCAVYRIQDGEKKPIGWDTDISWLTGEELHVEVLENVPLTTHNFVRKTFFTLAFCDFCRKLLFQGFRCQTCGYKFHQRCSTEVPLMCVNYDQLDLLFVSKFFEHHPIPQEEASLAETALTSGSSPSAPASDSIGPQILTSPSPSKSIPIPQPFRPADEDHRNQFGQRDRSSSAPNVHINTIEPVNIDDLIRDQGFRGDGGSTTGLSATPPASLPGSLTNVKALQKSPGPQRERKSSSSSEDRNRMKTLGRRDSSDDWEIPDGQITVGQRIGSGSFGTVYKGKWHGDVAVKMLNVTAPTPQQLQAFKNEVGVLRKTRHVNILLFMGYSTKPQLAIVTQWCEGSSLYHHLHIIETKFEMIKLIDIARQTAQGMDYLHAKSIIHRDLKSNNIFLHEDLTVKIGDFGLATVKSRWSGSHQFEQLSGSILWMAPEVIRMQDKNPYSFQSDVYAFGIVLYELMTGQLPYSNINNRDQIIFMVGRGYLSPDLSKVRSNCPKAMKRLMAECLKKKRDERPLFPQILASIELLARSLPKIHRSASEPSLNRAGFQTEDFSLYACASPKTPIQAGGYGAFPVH

Kd: 101 nM
Substance: GST-tagged, dimeric full-length KRAS4b (from UniProt P01116-2 1-188) (natural protein)
